Results from patent US20240132624A1 (Ablynx, published 2024).

Legend:
human FcRn/b2M [1] = target: T1, human FcRn/b2M (human, UniProt P61769 21-119, biotinylated); experiment: SPR pH 6.0;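 note: surface plasmon resonance kinetics at 25 °C, diluted periplasmic extracts injected over immobilized ligand surfaces, 120 s association then 600–3600 s dissociation, running buffer containing 150 mM NaCl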
T1 construct: bought recombinant biotinylated protein (ACRO FCM-H82W4 or Immunitrack ITF01); also called hFcRn; hFcRn/hb2M
Experimental: (§1) All kinetic measurements have been performed on ProteOn XPR36 (BioRad Laboratories, Inc.), MASS-2 (Sierra sensors, Gmbh) or SPR-32 (Bruker Corporation). […] The phytip purified periplasmic extracts were diluted 1:10 in running buffer (CPA+150 mM NaCl+0.005% Tw20 at pH 5.5, pH 6.0 or pH 7.4) and injected over the ligand surfaces (association: 120 s at 45 μL/min; dissociation: 600s-3600 s at 45 μL/min). Experiments were carried out at 25° C.

cyno FcRn/b2M [2] = target: T2, cyno FcRn/b2M (cyno, UniProt Q8SPV9 24-297; Q8SPW0 21-119, biotinylated); experiment: SPR pH 6.0;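 note: surface plasmon resonance kinetics at 25 °C, diluted periplasmic extracts injected over immobilized ligand surfaces, 120 s association then 600–3600 s dissociation, running buffer containing 150 mM NaCl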
T2 construct: bought recombinant biotinylated protein (Immunitrack ITF05 or ACRO FCM-C82W5); also called cFcRn; cFcRn/cb2M
Experimental: as §1

human FcRn/b2M [3] = target: T1, human FcRn/b2M; experiment: SPR off-rate; pH 7.4 vs pH 6.0;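 note: surface plasmon resonance with diluted periplasmic extracts flowed over ligand surfaces, 120 s association and 600–3600 s dissociation at 25 °C, running buffer containing 150 mM NaCl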
Experimental: as §1

cyno FcRn/b2M [4] = target: T2, cyno FcRn/b2M; experiment: SPR off-rate; pH 7.4 vs pH 6.0;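 note: surface plasmon resonance with diluted periplasmic extracts flowed over ligand surfaces, 120 s association and 600–3600 s dissociation at 25 °C, running buffer containing 150 mM NaCl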
Experimental: as §1

human FcRn/b2M [5] = target: T1, human FcRn/b2M; experiment: SPR pH 7.4;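 note: surface plasmon resonance kinetics, periplasmic extracts diluted 1:10 flowed over immobilized target at 25 °C, 120 s association then 600–3600 s dissociation, buffer with 150 mM NaCl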
Experimental: as §1

cyno FcRn/b2M [6] = target: T2, cyno FcRn/b2M; experiment: SPR pH 7.4;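 note: surface plasmon resonance kinetics, periplasmic extracts diluted 1:10 flowed over immobilized target at 25 °C, 120 s association then 600–3600 s dissociation, buffer with 150 mM NaCl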
Experimental: as §1

T2 sequence (Q8SPV9 24-297 limits assumed, chain 1 of 2): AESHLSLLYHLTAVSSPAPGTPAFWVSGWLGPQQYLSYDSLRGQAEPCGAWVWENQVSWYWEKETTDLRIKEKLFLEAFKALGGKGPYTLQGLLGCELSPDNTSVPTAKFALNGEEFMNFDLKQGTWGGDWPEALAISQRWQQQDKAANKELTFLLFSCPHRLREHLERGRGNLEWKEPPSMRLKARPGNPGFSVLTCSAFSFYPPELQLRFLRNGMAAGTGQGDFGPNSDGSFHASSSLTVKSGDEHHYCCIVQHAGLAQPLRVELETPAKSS
T2 sequence (Q8SPW0 21-119 limits assumed, chain 2 of 2): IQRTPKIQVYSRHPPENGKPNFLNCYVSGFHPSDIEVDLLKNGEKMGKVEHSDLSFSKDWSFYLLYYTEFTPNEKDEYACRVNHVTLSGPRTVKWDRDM
T1 sequence (chain, as listed by the source limits assumed, chain 1 of 2): as the sequence (Q8SPV9 24-297 limits assumed, chain 1 of 2) above, with D39N, Q44E, S99G, G189S, N190S, M217L, T269S counted along it
T1 sequence (P61769 21-119 limits assumed, chain 2 of 2): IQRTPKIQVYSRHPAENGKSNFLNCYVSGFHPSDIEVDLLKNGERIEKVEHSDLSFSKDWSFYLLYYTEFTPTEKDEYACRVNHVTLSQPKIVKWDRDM

Row | Binder | koff (human FcRn/b2M [1]) | koff (cyno FcRn/b2M [2]) | kd ratio pH 7.4/6.0 (human FcRn/b2M [3]) | kd ratio pH 7.4/6.0 (cyno FcRn/b2M [4]) | koff (human FcRn/b2M [5]) | koff (cyno FcRn/b2M [6])
1 | T0263018B11 S30D (VHH, name in Kabat numbering, FLAG3-His6 tagged) VHH: EVQLVESGGGVVQPGGSLRLSCAASGFTFDSYAMYWVRQAPGKGLEWVSAISSGGGSTDYADSVKGRFTISRDNSKNTLYLQMNSLRPEDTALYYCAADTLYTSLTWYSYWGQGTLVTVSS | 0.0032 s⁻¹ | 0.0026 s⁻¹ | 41 | 65 | 0.13 s⁻¹ | 0.17 s⁻¹
2 | T0263018B11 S30E (VHH, name in Kabat numbering, FLAG3-His6 tagged) VHH: EVQLVESGGGVVQPGGSLRLSCAASGFTFESYAMYWVRQAPGKGLEWVSAISSGGGSTDYADSVKGRFTISRDNSKNTLYLQMNSLRPEDTALYYCAADTLYTSLTWYSYWGQGTLVTVSS | 0.0019 s⁻¹ | 0.0016 s⁻¹ | 37 | 46 | 0.071 s⁻¹ | 0.073 s⁻¹
3 | T0263018B11 S30G (VHH, name in Kabat numbering, FLAG3-His6 tagged) VHH: EVQLVESGGGVVQPGGSLRLSCAASGFTFGSYAMYWVRQAPGKGLEWVSAISSGGGSTDYADSVKGRFTISRDNSKNTLYLQMNSLRPEDTALYYCAADTLYTSLTWYSYWGQGTLVTVSS | 0.00066 s⁻¹ | 0.00054 s⁻¹ | 38 | 35 | 0.025 s⁻¹ | 0.019 s⁻¹
4 | T0263018B11 S30K (VHH, name in Kabat numbering, FLAG3-His6 tagged) VHH: EVQLVESGGGVVQPGGSLRLSCAASGFTFKSYAMYWVRQAPGKGLEWVSAISSGGGSTDYADSVKGRFTISRDNSKNTLYLQMNSLRPEDTALYYCAADTLYTSLTWYSYWGQGTLVTVSS | 0.0078 s⁻¹ | 0.003 s⁻¹ | 9 | 18 | 0.069 s⁻¹ | 0.055 s⁻¹
5 | T0263018B11 S30N (VHH, name in Kabat numbering, FLAG3-His6 tagged) VHH: EVQLVESGGGVVQPGGSLRLSCAASGFTFNSYAMYWVRQAPGKGLEWVSAISSGGGSTDYADSVKGRFTISRDNSKNTLYLQMNSLRPEDTALYYCAADTLYTSLTWYSYWGQGTLVTVSS | 0.0019 s⁻¹ | 0.0013 s⁻¹ | 42 | 46 | 0.082 s⁻¹ | 0.061 s⁻¹
6 | T0263018B11 S30Q (VHH, name in Kabat numbering, FLAG3-His6 tagged) VHH: EVQLVESGGGVVQPGGSLRLSCAASGFTFQSYAMYWVRQAPGKGLEWVSAISSGGGSTDYADSVKGRFTISRDNSKNTLYLQMNSLRPEDTALYYCAADTLYTSLTWYSYWGQGTLVTVSS | 0.00085 s⁻¹ | 0.00055 s⁻¹ | 42 | 47 | 0.035 s⁻¹ | 0.026 s⁻¹
7 | T0263018B11 S30T (VHH, name in Kabat numbering, FLAG3-His6 tagged) VHH: EVQLVESGGGVVQPGGSLRLSCAASGFTFTSYAMYWVRQAPGKGLEWVSAISSGGGSTDYADSVKGRFTISRDNSKNTLYLQMNSLRPEDTALYYCAADTLYTSLTWYSYWGQGTLVTVSS | 0.0016 s⁻¹ | 0.0014 s⁻¹ | 37 | 44 | 0.059 s⁻¹ | 0.062 s⁻¹
8 | T0263018B11 S31K (VHH, name in Kabat numbering, FLAG3-His6 tagged) VHH: EVQLVESGGGVVQPGGSLRLSCAASGFTFSKYAMYWVRQAPGKGLEWVSAISSGGGSTDYADSVKGRFTISRDNSKNTLYLQMNSLRPEDTALYYCAADTLYTSLTWYSYWGQGTLVTVSS | 0.0013 s⁻¹ | 0.0011 s⁻¹ | 37 | 40 | 0.048 s⁻¹ | 0.044 s⁻¹
9 | T0263018B11 S31N (VHH, name in Kabat numbering, FLAG3-His6 tagged) VHH: EVQLVESGGGVVQPGGSLRLSCAASGFTFSNYAMYWVRQAPGKGLEWVSAISSGGGSTDYADSVKGRFTISRDNSKNTLYLQMNSLRPEDTALYYCAADTLYTSLTWYSYWGQGTLVTVSS | 0.0034 s⁻¹ | 0.0018 s⁻¹ | 50 | 69 | 0.17 s⁻¹ | 0.12 s⁻¹
10 | T0263018B11 S31P (VHH, name in Kabat numbering, FLAG3-His6 tagged) VHH: EVQLVESGGGVVQPGGSLRLSCAASGFTFSPYAMYWVRQAPGKGLEWVSAISSGGGSTDYADSVKGRFTISRDNSKNTLYLQMNSLRPEDTALYYCAADTLYTSLTWYSYWGQGTLVTVSS | 0.00088 s⁻¹ | 0.00073 s⁻¹ | 49 | 59 | 0.043 s⁻¹ | 0.043 s⁻¹
11 | T0263018B11 S31Q (VHH, name in Kabat numbering, FLAG3-His6 tagged) VHH: EVQLVESGGGVVQPGGSLRLSCAASGFTFSQYAMYWVRQAPGKGLEWVSAISSGGGSTDYADSVKGRFTISRDNSKNTLYLQMNSLRPEDTALYYCAADTLYTSLTWYSYWGQGTLVTVSS | 0.00038 s⁻¹ | 0.00016 s⁻¹ | 43 | 79 | 0.017 s⁻¹ | 0.013 s⁻¹
12 | T0263018B11 S31T (VHH, name in Kabat numbering, FLAG3-His6 tagged) VHH: EVQLVESGGGVVQPGGSLRLSCAASGFTFSTYAMYWVRQAPGKGLEWVSAISSGGGSTDYADSVKGRFTISRDNSKNTLYLQMNSLRPEDTALYYCAADTLYTSLTWYSYWGQGTLVTVSS | 0.00052 s⁻¹ | 0.0003 s⁻¹ | 46 | 60 | 0.024 s⁻¹ | 0.018 s⁻¹
13 | T0263018B11 S52D (VHH, name in Kabat numbering, FLAG3-His6 tagged) VHH: EVQLVESGGGVVQPGGSLRLSCAASGFTFSSYAMYWVRQAPGKGLEWVSAIDSGGGSTDYADSVKGRFTISRDNSKNTLYLQMNSLRPEDTALYYCAADTLYTSLTWYSYWGQGTLVTVSS | 0.0044 s⁻¹ | 0.0031 s⁻¹ | 32 | 61 | 0.14 s⁻¹ | 0.19 s⁻¹
14 | T0263018B11 S52E (VHH, name in Kabat numbering, FLAG3-His6 tagged) VHH: EVQLVESGGGVVQPGGSLRLSCAASGFTFSSYAMYWVRQAPGKGLEWVSAIESGGGSTDYADSVKGRFTISRDNSKNTLYLQMNSLRPEDTALYYCAADTLYTSLTWYSYWGQGTLVTVSS | 0.0026 s⁻¹ | 0.0023 s⁻¹ | 16 | 20 | 0.042 s⁻¹ | 0.047 s⁻¹
15 | T0263018B11 S52G (VHH, name in Kabat numbering, FLAG3-His6 tagged) VHH: EVQLVESGGGVVQPGGSLRLSCAASGFTFSSYAMYWVRQAPGKGLEWVSAIGSGGGSTDYADSVKGRFTISRDNSKNTLYLQMNSLRPEDTALYYCAADTLYTSLTWYSYWGQGTLVTVSS | 0.00039 s⁻¹ | 0.0004 s⁻¹ | 32 | 27 | 0.012 s⁻¹ | 0.011 s⁻¹
16 | T0263018B11 S52H (VHH, name in Kabat numbering, FLAG3-His6 tagged) VHH: EVQLVESGGGVVQPGGSLRLSCAASGFTFSSYAMYWVRQAPGKGLEWVSAIHSGGGSTDYADSVKGRFTISRDNSKNTLYLQMNSLRPEDTALYYCAADTLYTSLTWYSYWGQGTLVTVSS | 0.0032 s⁻¹ | 0.0022 s⁻¹ | 46 | 48 | 0.15 s⁻¹ | 0.11 s⁻¹
17 | T0263018B11 S52P (VHH, name in Kabat numbering, FLAG3-His6 tagged) VHH: EVQLVESGGGVVQPGGSLRLSCAASGFTFSSYAMYWVRQAPGKGLEWVSAIPSGGGSTDYADSVKGRFTISRDNSKNTLYLQMNSLRPEDTALYYCAADTLYTSLTWYSYWGQGTLVTVSS | 0.0011 s⁻¹ | 0.0013 s⁻¹ | 27 | 37 | 0.03 s⁻¹ | 0.048 s⁻¹
